For this data set, the target named is T1, bio-d-mC5a (mirror-image mouse C5a) (mouse, UniProt P06684).
T1 sequence: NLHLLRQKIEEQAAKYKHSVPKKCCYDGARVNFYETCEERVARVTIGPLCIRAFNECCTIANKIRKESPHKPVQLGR
Description: competition.

For the molecule GCCUGAUGUGGUGUUGAAGGGUUGUUGGGUGUCGACGCACAGGC (structured_RNA) [274-C8-002], the binding result is “binds”.

In the case of GCCUGAUGUGGUGGUGAAGGGUUGUUGGGUGUCGACGCACAGGC (structured_RNA) [274-C8-002-G14], the binding result is listed as “binds”.

Source of the values: article PMC3863792.
